In patent US20240294623A1 (SCHOLAR ROCK, published 2024):
Changes are numbered by the printed parent chain. Values belong to the binder of their own block, whether it stands above or below them.

Tests used:
hLTBP3-proTGFβ1 [1] = molecular target: T1, hLTBP3-proTGFβ1 (human, UniProt Q9NS15 44-1303; P01137 30-390, limits assumed); assay: BLI (Octet)
T1 construct: LLC as m1; Same id used for the cell-made complex in reporter assays; also called human LTBP3-proTGFβ1 complex; LTBP3-ProTGFb1

hLTBP1-proTGFβ1 [2] = molecular target: T2, hLTBP1-proTGFβ1 (human, UniProt Q14766 347-1721; P01137 30-390, limits assumed); assay: BLI (Octet)
T2 construct: Large latent complex (LLC): proTGFβ1 dimer disulfide-linked to one presenting molecule; recombinant, purified, biotinylated in BLI/SPR; The same id is used for the complex made by transfected cells in the reporter assays; also called human LTBP1-proTGFβ1 complex; LTBP1-ProTGFb1

hGARP-proTGFβ1 [3] = molecular target: T3, hGARP-proTGFβ1 (human, UniProt Q14392 18-627; P01137 30-390, limits assumed); assay: BLI (Octet)
T3 construct: LLC as m1; Same id used for the cell-surface complex in reporter assays; also called human GARP-proTGFβ1 complex; GARP-ProTGFb1

hLRRC33-proTGFβ1 [4] = molecular target: T4, hLRRC33-proTGFβ1 (human, UniProt Q86YC3 19-650; P01137 30-390, limits assumed); assay: BLI (Octet)
T4 construct: LLC as m1; Same id used for the cell-surface complex in reporter assays; also called human LRRC33-proTGFβ1 complex; LRRC33-ProTGFb1

hLTBP3-proTGFβ1 [5] = molecular target: T1, hLTBP3-proTGFβ1; assay: cell-based or functional assay
hLTBP1-proTGFβ1 [6] = molecular target: T2, hLTBP1-proTGFβ1; assay: cell-based or functional assay
hGARP-proTGFβ1 [7] = molecular target: T3, hGARP-proTGFβ1; assay: cell-based or functional assay
hLRRC33-proTGFβ1 [8] = molecular target: T4, hLRRC33-proTGFβ1; assay: cell-based or functional assay
hLTBP3-proTGFβ1 [9] = molecular target: T1, hLTBP3-proTGFβ1; assay: MSD-SET, hIgG4
Procedure: (§1) For solution equilibrium titration-based binding assays, protein complexes that comprise one of the presenting molecules such as those shown above may be employed as antigen (presenting molecule-TGFβ1 complex, or an LLC). Test antibodies are allowed to form antigen-antibody complex in solution. Antigen-antibody reaction mixtures are incubated to allow an equilibrium to be reached; the amount of the antigen-antibody complex present in the assay reactions can be measured by suitable means well known in the art. As compared to BLI-based assays, SET-based assays are less affected by on/off rates of the antigen-antibody complex, allowing sensitive detection of very high affinity interactions.

hLTBP1-proTGFβ1 [10] = molecular target: T2, hLTBP1-proTGFβ1; assay: MSD-SET, hIgG4
Procedure: as §1

hGARP-proTGFβ1 [11] = molecular target: T3, hGARP-proTGFβ1; assay: MSD-SET, hIgG4
Procedure: as §1

hLRRC33-proTGFβ1 [12] = molecular target: T4, hLRRC33-proTGFβ1; assay: MSD-SET, hIgG4
Procedure: as §1

T3 sequence (Q14392 18-627 limits assumed, chain 1 of 2): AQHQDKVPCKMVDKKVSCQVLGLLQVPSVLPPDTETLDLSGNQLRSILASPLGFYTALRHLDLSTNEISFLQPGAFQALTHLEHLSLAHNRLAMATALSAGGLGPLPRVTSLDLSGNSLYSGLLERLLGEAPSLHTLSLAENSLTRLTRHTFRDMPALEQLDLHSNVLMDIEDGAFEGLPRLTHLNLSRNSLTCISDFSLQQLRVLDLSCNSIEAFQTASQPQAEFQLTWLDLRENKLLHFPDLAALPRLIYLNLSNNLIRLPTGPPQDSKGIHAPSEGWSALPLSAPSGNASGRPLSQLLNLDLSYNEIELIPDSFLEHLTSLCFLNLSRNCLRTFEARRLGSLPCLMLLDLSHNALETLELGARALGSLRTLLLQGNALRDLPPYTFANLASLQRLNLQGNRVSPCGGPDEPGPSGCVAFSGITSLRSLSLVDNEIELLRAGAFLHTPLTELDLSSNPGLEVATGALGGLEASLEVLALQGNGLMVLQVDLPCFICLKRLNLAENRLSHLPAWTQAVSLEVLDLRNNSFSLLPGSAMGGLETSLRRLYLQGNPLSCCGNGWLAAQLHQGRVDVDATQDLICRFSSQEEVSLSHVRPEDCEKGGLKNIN
T3 sequence (P01137 30-390 limits assumed, chain 2 of 2): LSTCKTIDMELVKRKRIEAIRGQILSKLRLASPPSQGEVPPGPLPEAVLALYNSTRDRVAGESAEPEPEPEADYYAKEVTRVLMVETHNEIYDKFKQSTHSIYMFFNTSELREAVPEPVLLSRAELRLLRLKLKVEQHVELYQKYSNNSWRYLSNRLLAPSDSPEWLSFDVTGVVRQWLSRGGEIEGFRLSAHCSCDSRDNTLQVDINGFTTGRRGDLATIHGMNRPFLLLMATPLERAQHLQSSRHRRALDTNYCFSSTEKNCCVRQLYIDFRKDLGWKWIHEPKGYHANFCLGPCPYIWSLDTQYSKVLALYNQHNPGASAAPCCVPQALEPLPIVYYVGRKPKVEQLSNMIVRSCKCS
T4 sequence (Q86YC3 19-650 limits assumed, chain 1 of 2): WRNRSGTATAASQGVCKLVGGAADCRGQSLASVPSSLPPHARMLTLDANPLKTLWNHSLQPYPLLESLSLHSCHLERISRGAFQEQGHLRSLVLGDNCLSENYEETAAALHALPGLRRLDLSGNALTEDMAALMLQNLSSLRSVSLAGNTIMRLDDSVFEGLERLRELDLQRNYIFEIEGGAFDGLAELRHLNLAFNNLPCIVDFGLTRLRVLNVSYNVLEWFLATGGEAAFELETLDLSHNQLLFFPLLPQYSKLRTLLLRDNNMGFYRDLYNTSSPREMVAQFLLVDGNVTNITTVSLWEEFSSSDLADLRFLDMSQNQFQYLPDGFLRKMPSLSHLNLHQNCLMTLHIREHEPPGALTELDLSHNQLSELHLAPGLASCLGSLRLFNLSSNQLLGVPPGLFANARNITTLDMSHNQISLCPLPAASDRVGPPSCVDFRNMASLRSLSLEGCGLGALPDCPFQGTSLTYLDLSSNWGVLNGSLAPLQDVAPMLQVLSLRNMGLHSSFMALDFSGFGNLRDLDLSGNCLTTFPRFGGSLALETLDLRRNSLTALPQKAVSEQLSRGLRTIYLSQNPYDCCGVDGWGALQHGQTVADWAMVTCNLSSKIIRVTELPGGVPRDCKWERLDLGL
T4 sequence (P01137 30-390 limits assumed, chain 2 of 2): as the sequence (P01137 30-390 limits assumed, chain 2 of 2) above
T1 sequence (Q9NS15 44-1303 limits assumed, chain 1 of 2): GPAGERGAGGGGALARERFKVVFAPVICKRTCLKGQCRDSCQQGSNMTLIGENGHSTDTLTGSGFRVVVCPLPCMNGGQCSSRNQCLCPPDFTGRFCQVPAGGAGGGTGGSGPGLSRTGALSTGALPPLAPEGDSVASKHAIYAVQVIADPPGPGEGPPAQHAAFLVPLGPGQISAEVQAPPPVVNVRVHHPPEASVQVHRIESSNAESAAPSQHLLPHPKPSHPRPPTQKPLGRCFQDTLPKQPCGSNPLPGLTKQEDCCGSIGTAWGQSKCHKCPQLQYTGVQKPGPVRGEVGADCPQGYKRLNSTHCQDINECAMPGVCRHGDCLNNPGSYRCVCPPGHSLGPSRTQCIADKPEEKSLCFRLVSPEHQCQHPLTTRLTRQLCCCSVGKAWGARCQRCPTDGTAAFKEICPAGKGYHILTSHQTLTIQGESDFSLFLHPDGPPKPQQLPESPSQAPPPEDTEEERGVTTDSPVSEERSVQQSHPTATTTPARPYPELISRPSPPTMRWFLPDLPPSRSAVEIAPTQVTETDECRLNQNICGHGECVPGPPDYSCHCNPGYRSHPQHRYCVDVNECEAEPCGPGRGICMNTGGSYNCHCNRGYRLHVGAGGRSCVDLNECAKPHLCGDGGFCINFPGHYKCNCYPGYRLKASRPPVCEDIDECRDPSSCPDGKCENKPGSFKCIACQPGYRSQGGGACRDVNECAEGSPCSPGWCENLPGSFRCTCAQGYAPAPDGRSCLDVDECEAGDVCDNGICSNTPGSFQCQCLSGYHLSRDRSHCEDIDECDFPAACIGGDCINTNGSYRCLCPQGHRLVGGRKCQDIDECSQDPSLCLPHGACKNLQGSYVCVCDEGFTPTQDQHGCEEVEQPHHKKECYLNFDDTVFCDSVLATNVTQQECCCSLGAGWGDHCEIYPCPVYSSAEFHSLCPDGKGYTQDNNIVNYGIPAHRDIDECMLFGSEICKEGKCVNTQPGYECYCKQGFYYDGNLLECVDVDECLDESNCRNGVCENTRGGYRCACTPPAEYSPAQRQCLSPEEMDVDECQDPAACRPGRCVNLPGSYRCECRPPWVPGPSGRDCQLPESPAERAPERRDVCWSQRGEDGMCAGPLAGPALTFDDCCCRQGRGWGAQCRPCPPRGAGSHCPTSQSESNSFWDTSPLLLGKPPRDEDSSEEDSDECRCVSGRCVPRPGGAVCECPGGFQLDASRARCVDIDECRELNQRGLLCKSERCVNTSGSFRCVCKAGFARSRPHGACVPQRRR
T1 sequence (P01137 30-390 limits assumed, chain 2 of 2): as the sequence (P01137 30-390 limits assumed, chain 2 of 2) above
T2 sequence (Q14766 347-1721 limits assumed, chain 1 of 2): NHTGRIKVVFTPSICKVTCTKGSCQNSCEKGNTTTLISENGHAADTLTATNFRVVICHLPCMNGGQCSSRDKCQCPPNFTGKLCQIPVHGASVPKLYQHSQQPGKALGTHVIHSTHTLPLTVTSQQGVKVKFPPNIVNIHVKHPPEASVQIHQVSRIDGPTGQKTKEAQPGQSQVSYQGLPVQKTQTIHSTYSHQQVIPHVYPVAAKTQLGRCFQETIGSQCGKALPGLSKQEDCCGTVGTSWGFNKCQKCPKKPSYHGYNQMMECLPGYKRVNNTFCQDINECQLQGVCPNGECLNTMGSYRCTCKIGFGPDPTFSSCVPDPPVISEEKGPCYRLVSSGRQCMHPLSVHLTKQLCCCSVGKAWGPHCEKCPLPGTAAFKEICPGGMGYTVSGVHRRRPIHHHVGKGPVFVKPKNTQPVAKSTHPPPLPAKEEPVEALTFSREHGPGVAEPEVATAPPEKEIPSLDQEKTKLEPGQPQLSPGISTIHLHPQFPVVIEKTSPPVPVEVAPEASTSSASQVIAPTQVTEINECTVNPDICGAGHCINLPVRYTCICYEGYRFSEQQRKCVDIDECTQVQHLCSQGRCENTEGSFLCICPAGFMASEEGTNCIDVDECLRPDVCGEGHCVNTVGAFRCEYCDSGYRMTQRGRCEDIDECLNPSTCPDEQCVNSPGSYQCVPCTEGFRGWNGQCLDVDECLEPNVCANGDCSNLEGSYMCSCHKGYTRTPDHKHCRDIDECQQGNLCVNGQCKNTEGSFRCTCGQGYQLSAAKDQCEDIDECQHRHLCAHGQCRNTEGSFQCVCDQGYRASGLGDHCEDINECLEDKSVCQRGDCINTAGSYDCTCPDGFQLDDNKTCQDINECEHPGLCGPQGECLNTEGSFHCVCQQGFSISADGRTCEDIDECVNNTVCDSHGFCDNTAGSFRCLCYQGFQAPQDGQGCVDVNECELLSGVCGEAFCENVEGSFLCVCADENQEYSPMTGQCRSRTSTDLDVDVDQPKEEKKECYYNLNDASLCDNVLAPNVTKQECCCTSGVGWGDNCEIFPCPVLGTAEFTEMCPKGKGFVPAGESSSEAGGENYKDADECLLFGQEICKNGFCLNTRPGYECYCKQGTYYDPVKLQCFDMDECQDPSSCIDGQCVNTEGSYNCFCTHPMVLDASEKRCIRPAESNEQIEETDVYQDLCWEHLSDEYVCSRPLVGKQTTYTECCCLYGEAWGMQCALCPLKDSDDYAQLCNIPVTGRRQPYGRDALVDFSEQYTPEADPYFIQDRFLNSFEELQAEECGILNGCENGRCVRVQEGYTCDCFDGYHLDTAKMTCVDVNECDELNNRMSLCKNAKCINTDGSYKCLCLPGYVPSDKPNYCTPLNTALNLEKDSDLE
T2 sequence (P01137 30-390 limits assumed, chain 2 of 2): as the sequence (P01137 30-390 limits assumed, chain 2 of 2) above

B1: Ab21 (antibody, V domains shown)
VH: EVQLVESGGGLVQPGGSLRLSCAASGFTFSSFSMDWVRQAPGKGLEWVSYISPDASTIYYADSVKGRFTISRDNAKNSLYLQMNSLRAEDTAVYYCARGVLDYGDMLDPWGQGTLVTVSS
VL: DIQMTQSPSSLSASVGDRVTITCQASQDITNYLNWYQQKPGKAPKLLIYDASNLETGVPSRFSGSGSGTDFTFTISSLQPEDIATYYCQQADNHPPWTFGGGTKVEIK
Kd (hLTBP3-proTGFβ1 [1]): 0.268 nM | Kd (hLTBP1-proTGFβ1 [2]): 0.225 nM | Kd (hGARP-proTGFβ1 [3]): 0.833 nM | Kd (hLRRC33-proTGFβ1 [4]): 0.455 nM | IC50, reporter cell assay (hLTBP3-proTGFβ1 [5]): 0.8 nM | IC50, reporter cell assay (hLTBP1-proTGFβ1 [6]): 1.6 nM | IC50, reporter cell assay (hGARP-proTGFβ1 [7]): 0.4 nM | IC50, reporter cell assay (hLRRC33-proTGFβ1 [8]): 0.6 nM

B3: Ab30 (antibody, V domains shown)
VH: B1 VH with V100T
VL: B1 VL
Kd (hLTBP3-proTGFβ1 [1]): 0.261 nM | Kd (hLTBP1-proTGFβ1 [2]): 0.332 nM | Kd (hGARP-proTGFβ1 [3]): 0.833 nM | Kd (hLRRC33-proTGFβ1 [4]): 0.535 nM | Kd (hLTBP3-proTGFβ1 [9]): 0.026 nM | Kd (hLTBP1-proTGFβ1 [10]): 0.031 nM | Kd (hGARP-proTGFβ1 [11]): 0.022 nM | Kd (hLRRC33-proTGFβ1 [12]): 0.14 nM

B6: Ab27 (antibody, V domains shown)
VH: B1 VH with S31F, F32Y, S33A, D35N
VL: B1 VL
Kd (hLTBP3-proTGFβ1 [1]): 0.238 nM | Kd (hLTBP1-proTGFβ1 [2]): 0.178 nM | Kd (hGARP-proTGFβ1 [3]): 0.424 nM | Kd (hLRRC33-proTGFβ1 [4]): 0.299 nM

B7: Ab28 (antibody, V domains shown)
VH: B1 VH with A97V
VL: B1 VL
Kd (hLTBP3-proTGFβ1 [1]): 0.316 nM | Kd (hLTBP1-proTGFβ1 [2]): 0.34 nM | Kd (hGARP-proTGFβ1 [3]): 0.797 nM | Kd (hLRRC33-proTGFβ1 [4]): 0.409 nM

B8: Ab32 (antibody, V domains shown)
VH: B1 VH with D35N, D54S, S56D, S78T, L101W, Y103M
VL: B1 VL
Kd (hLTBP3-proTGFβ1 [1]): 0.215 nM | Kd (hLTBP1-proTGFβ1 [2]): 0.269 nM | Kd (hGARP-proTGFβ1 [3]): 0.496 nM | Kd (hLRRC33-proTGFβ1 [4]): 0.698 nM | Kd (hLTBP3-proTGFβ1 [9]): 0.026 nM | Kd (hLTBP1-proTGFβ1 [10]): 0.037 nM | Kd (hGARP-proTGFβ1 [11]): 0.015 nM | Kd (hLRRC33-proTGFβ1 [12]): 0.087 nM

The remaining lines, values ahead:

IC50, reporter cell assay (hLTBP3-proTGFβ1 [5]): 1 nM | IC50, reporter cell assay (hLTBP1-proTGFβ1 [6]): 1.3 nM | IC50, reporter cell assay (hGARP-proTGFβ1 [7]): 0.1 nM | IC50, reporter cell assay (hLRRC33-proTGFβ1 [8]): 0.6 nM
B2: Ab5 (antibody, V domains shown)
VH: B1 VH
VL: B1 VL

Kd (hLTBP3-proTGFβ1 [1]): 0.198 nM | Kd (hLTBP1-proTGFβ1 [2]): 0.246 nM | Kd (hGARP-proTGFβ1 [3]): 0.665 nM | Kd (hLRRC33-proTGFβ1 [4]): 0.41 nM | Kd (hLTBP3-proTGFβ1 [9]): 0.021 nM | Kd (hLTBP1-proTGFβ1 [10]): 0.024 nM | Kd (hGARP-proTGFβ1 [11]): 0.019 nM | Kd (hLRRC33-proTGFβ1 [12]): 0.18 nM
B4: Ab24 (antibody, V domains shown)
VH: B1 VH with G16R, S33A, D35Y
VL: B1 VL

Kd (hLTBP3-proTGFβ1 [1]): 0.468 nM | Kd (hLTBP1-proTGFβ1 [2]): 0.417 nM | Kd (hGARP-proTGFβ1 [3]): 1.34 nM | Kd (hLRRC33-proTGFβ1 [4]): 0.455 nM | IC50, reporter cell assay (hLTBP3-proTGFβ1 [5]): 0.9 nM | IC50, reporter cell assay (hLTBP1-proTGFβ1 [6]): 0.8 nM | IC50, reporter cell assay (hGARP-proTGFβ1 [7]): 0.3 nM | IC50, reporter cell assay (hLRRC33-proTGFβ1 [8]): 0.6 nM
B5: Ab23 (antibody, V domains shown)
VH: B1 VH with D35N, D54S, S56D, S78T
VL: B1 VL

Kd (hLTBP3-proTGFβ1 [1]): 0.329 nM | Kd (hLTBP1-proTGFβ1 [2]): 0.318 nM | Kd (hGARP-proTGFβ1 [3]): 0.974 nM | Kd (hLRRC33-proTGFβ1 [4]): 0.415 nM | Kd (hLTBP3-proTGFβ1 [9]): 0.033 nM | Kd (hLTBP1-proTGFβ1 [10]): 0.05 nM | Kd (hGARP-proTGFβ1 [11]): 0.027 nM | Kd (hLRRC33-proTGFβ1 [12]): 0.2 nM
B9: Ab22 (antibody, V domains shown)
VH: B1 VH with S30G, D35N, S52H, P53S
VL: B1 VL

Kd (hLTBP3-proTGFβ1 [1]): 0.181 nM | Kd (hLTBP1-proTGFβ1 [2]): 0.236 nM | Kd (hGARP-proTGFβ1 [3]): 0.581 nM | Kd (hLRRC33-proTGFβ1 [4]): 0.41 nM | Kd (hLTBP3-proTGFβ1 [9]): 0.014 nM | Kd (hLTBP1-proTGFβ1 [10]): 0.019 nM | Kd (hGARP-proTGFβ1 [11]): 0.019 nM | Kd (hLRRC33-proTGFβ1 [12]): 0.096 nM
B10: Ab31 (antibody, V domains shown)
VH: B1 VH with S78T, G99A
VL: B1 VL
